In patent publication US20110287936A1, “GENE SWITCH COMPOSITIONS AND METHODS OF USE” (priority 2010, published 2011):
Residue numbers refer to the chain shown, from its start.

B1: 35S:tetOp: 35SCaMV promoter with tet operators, SEQ ID NO:862, control (nucleic acid)
DNA: GAAAATCTTCGTCAACATGGTGGAGCACGACACGCTTGTCTACTCCAAAAATATCAAAGATACAGTCTCAGAAGACCAAAGGGCAATTGAGACTTTTCAACAAAGGGTAATATCCGGAAACCTCCTCGGATTCCATTGCCCAGCTATCTGTCACTTTATTGTGAAGATAGTGGAAAAGGAAGGTGGCTCCTACAAATGCCATCATTGCGATAAAGGAAAGGCCATCGTTGAAGATGCCTCTGCCGACAGTGGTCCCAAAGATGGACCCCCACCCACGAGGAGCATCGTGGAAAAAGAAGACGTTCCAACCACGTCTTCAAAGCAAGTGGATTGATGTGATATCTCCACTGACGTAAGGGATGACGCACAATCCCACTAGACTCTATCAGTGATAGAGTGTATATAAGACTCTATCAGTGATAGAGTGAACTCTATCAGTGATAGAGTTGTACTTATTTTTACAACAATTACCAACAACAACAAACAACAAACAACATTACAATTACTATTTACAATTACAGTCGACGGATCAAGTGCAAAGGTCCGCCTTGTTTCTCCTCTGTCTCTTGATCTGACTAATCTTGGTTTATGATTCGTTGAGTAATTTTGGGGAAAGCTTCGTCCACAGTTTTTTTTTCGATGAACAGTGCCGCAGTGGCGCTGATCTTGTATGCTATCCTGCAATCGTGGTGAACTTATTTCTTTTATATCCTTCACTCCCATGAAAAGGCTAGTAATCTTTCTCGATGTAACATCGTCCAGCACTGCTATTACCGTGTGGTCCATCCGACAGTCTGGCTGAACACATCATACGATATTGAGCAAAGATCGATCTATCTTCCCTGTTCTTTAATGAAAGACGTCATTTTCATCAGTATGATCTAAGAATGTTGCAACTTGCAAGGAGGCGTTTCTTTCTTTGAATTTAACTAACTCGTTGAGTGGCCCTGTTTCTCGGACGTAAGGCCTTTGCTGCTCCACACATGTCCATTCGAATTTTACCGTGTTTAGCAAGGGCGAAAAGTTTGCATCTTGATGATTTAGCTTGACTATGCGATTGCTTTCCTGGACCCGTGCAGCTGCGGACGGATCC
modifications: 35SCaMV promoter engineered with tet operators
B2: L7-3E03-D1: ethametsulfuron repressor (EsR), SEQ ID NO:411 (protein)
chain: MARLDKSKVINSALELLNEVGIEGLTTRKLAQKLGVEQPTLYWHVKNKRALLDAMAIEMLDRHATHYCPLEGESWQDFLRNNAKSMRCALLSHRDGAKVCLGTGFTEQQYETAENSLAFLCQQGFSLEHAMYAMQAAGIYTLGCVLLDQELQVAKEERETPTTDSMPPLVRQALELKDHQGAEPAFLFGLELIICGLEKQLKCESGS
modifications: Sulfonylurea responsive repressor L7-3E3-D1
B3: L7-1C03-A5: ethametsulfuron repressor (EsR), SEQ ID NO:408 (protein)
chain: B2 chain with Y67V, S85I, M131L, Y140F, K177N
modifications: Sulfonylurea responsive repressor L7-1C3-A5
B4: L7-1F08-A11: ethametsulfuron repressor protein, SEQ ID NO:409 (protein)
chain: B2 chain with H129N, M131L, A137V
modifications: Sulfonylurea responsive repressor L7-1F8-A11
B5: L7-1G06-B2: ethametsulfuron repressor (EsR), SEQ ID NO:410 (protein)
chain: B2 chain with L117M, H129N, M131L, A137V
modifications: Sulfonylurea responsive repressor L7-1G6-B2
B6: dMMV:tetOp: double enhancer MMV promoter with three tet operators, SEQ ID NO:858 (nucleic acid)
DNA: AAACCAATTCGTCAACTTCGTCCACAGACATCAACATCTTATCGTCCTTTGAAGATAAGATAATAATGTTGAAGATAAGAGTGGGAGCCCCCACTAAAACATTGCTTTGTCAAAAGCTAAAAAAGATGATGCCCGACAGCCACTTGTGTGAAGCATGAGAAGCCGGTCCCTCCACTAAGAAAATTAGTGAAGCATCTTCCAGTGGTCCCTCCACTCACAGCTCAATCAGTGAGCAACAGGACGAAGGAAATGACGTAAGCCATGACGTCTAATCCCAACTTCGTCCACAGACATCAACATCTTATCGTCCTTTGAAGATAAGATAATAATGTTGAAGATAAGAGTGGGAGCCACCACTAAAACATTGCTTTGTCAAAAGCTAAAAAAGATGATGCCCGACAGCCACTTGTGTGAAGCATGAGAAGCCGGTCCCTCCACTAAGAAAATTAGTGAAGCATCTTCCAGTGGTCCCTCCACTCACAGCTCAATCAGTGAGCAACAGGACGAAGGAAATGACGTAAGCCATGACGTCTAATCCCACACTCTATCAGTGATAGAGTTTATATAAGACTCTATCAGTGATAGAGTGAACTCTATCAGTGATAGAGTGAGATCAATCGAAATCAAAATCGGAATCGAAATCAAAATCGGAATCGAAATCTCTCATCTAAGAGCTCAAAAAAAAAAAAAACC
modifications: dMMV promoter engineered with tet operators
B7: MMV:tetOp: Mirabilis mosaic virus promoter with three tet operators, SEQ ID NO:857 (nucleic acid)
DNA: TTCGTCCACAGACATCAACATCTTATCGTCCTTTGAAGATAAGATAATAATGTTGAAGATAAGAGTGGGAGCCACCACTAAAACATTGCTTTGTCAAAAGCTAAAAAAGATGATGCCCGACAGCCACTTGTGTGAAGCATGAGAAGCCGGTCCCTCCACTAAGAAAATTAGTGAAGCATCTTCCAGTGGTCCCTCCACTCACAGCTCAATCAGTGAGCAACAGGACGAAGGAAATGACGTAAGCCATGACGTCTAATCCCACACTCTATCAGTGATAGAGTTTATATAAGACTCTATCAGTGATAGAGTGAACTCTATCAGTGATAGAGTGAGATCAATCGAAATCAAAATCGGAATCGAAATCAAAATCGGAATCGAAATCTCTCATCTAAGAGCTCAAAAAAAAAAAAAACC
modifications: MMV promoter engineered with tet operators

Key:
RLuc reporter = test: Agrobacterium transient luciferase assay of promoters with and without tet operators; format: in vivo, Nicotiana benthamiana; settings: relative light units
Method: The activity of unmodified and designed MMV, dMMV, and EF1A2 promoters were evaluated using the characterized 35SCaMV (SEQ ID NO:861) and 35SCaMV::tetOP (SEQ ID NO:862) promoters as controls. Promoter activity was analyzed via Agrobacterium-mediated transient expression analysis in Nicotiana benthamiana leaves. N. benthamiana leaves were infected with luciferase reporter constructs controlled by either the modified or unmodified promoters. Test constructs were identical except for the promoter sequence (Pro) being tested. Test constructs comprised the following operably linked components: • RB-Pro-RLuc-UBQ3-EF1A-NptII-EF1A3′-LB
Relative light units were quantified for modified and unmodified promoters (FIG. 3), and promoter activity for the modified version determined as the percent of unmodified promoter activity (ProOp/Pro). […] In this assay, 35S:tetOp had about 25% of the activity as 35S promoter, EF1A2:tetOp had about 30% of the activity of EF1A2 promoter, MMV:tetOp had about 60% of the activity of MMV promoter, and dMMV:tetOp had about 50% of the activity of dMMV promoter.

[1] = tested on: 35S::tetO-Renilla Luciferase reporter; test: Nicotiana benthamiana leaf infiltration assay, repression and derepression; format: in vivo; settings: inducer concentration as low as 0.02 ppm Es
operator = test: Biacore SPR operator binding characterization of repressors
Description: Select SU repressors were further characterized for operator and ligand binding, affinity and dissociation kinetics using Biacore™ SPR technology (Biacore, GE Healthcare, USA). The technology is based on surface plasmon resonance (SPR), an optical phenomenon that enables detection of unlabeled interactants in real time. The SPR-based biosensors can be used in determination of active concentration, screening and characterization in terms of both affinity and kinetics.
The kinetics of an interaction, i.e., the rates of complex formation (ka) and dissociation (kd), can be determined from the information in a sensorgram. If binding occurs as sample passes over a prepared sensor surface, the response in the sensorgram increases. If equilibrium is reached, a constant signal is seen. Replacing the sample with buffer causes the bound molecules to dissociate and the response decreases. Biacore evaluation software generates the values of ka and kd by fitting the data to interaction models.
The affinity of an interaction is determined from the level of binding at equilibrium (seen as a constant signal) as a function of sample concentration. Affinity can also be determined from kinetic measurements. For a simple 1:1 interaction, the equilibrium constant KD is the ratio of the kinetic rate constants, kd/ka.
A. Operator Binding Characterization of Repressors

Molecule | promoter activity as percent of unmodified promoter activity (ProOp/Pro) (RLuc reporter) | induction of repressor [1] | ka (operator)
B1 | about 25% |  | 
B2 |  | significant but incomplete induction | 55000 M⁻¹ s⁻¹
B3 |  |  | 47000 M⁻¹ s⁻¹
B4 |  |  | 71000 M⁻¹ s⁻¹
B5 |  |  | 46000 M⁻¹ s⁻¹
B6 | about 50% |  | 
B7 | about 60% |  | 
